According to paper PMC5702849, “A Novel Halotolerant Thermoalkaliphilic Esterase from Marine Bacterium Erythrobacter seohaensis SW-135” (Frontiers in Microbiology, 2017):

Substrate: CCCC(=O)Oc1ccc([N+](=O)[O-])cc1
Assay: purified protein
Format: biochemical, Qipengyuania seohaensis
Settings: standard assay: 50 mM CHES pH 10.0, 40 °C, 0.05-4.0 mM substrate

B1: E69 (Qipengyuania seohaensis) (protein)
chain: MRDHGERFVVEAEERRTVSIERTNLGGVNIAWVSPSDKVPSSDGPLIFNLHDGGFALNDGDAALYTAVSFAELQQLDSVSVDYRLTPQHPYPAALEDAVAAYAVIKRKMPGRPIVVYGLSAGGGLGAAFLLKVKQLGLPMPEAAVLNSPWSDVSMNSDTLATLDCYDPLLGGSRPTLKPLANSYAAGADPQDPLVSPVYGDWEGVDVPVLLISGTRDVMLGDTVRLHRAMWRAGVPAELIVNEGMWHAFSVEPEFEAMIADSARFIRHISAKED
notes: expressed in E. coli BL21 (DE3) from pSMT3 as N-terminal His6-SUMO fusion, tag cleaved with ULP1 and removed; about 30 kDa on SDS-PAGE
- Km: 2.2 ± 0.3 mM
